Consider 57 variants from the RNAGym collection of RNA variant scans (doi:10.7554/elife.80360).

B1: Hammerhead Ribozyme (parent)
chain: ACCGGAUGUGCUUUCCGGUCUGAUGAGUCCGUGAGGACGAAACAG

The variants in this data set derive from B1. Briefly: self-cleavage, relative activity (ratio to wild type); higher = more cleavage; co-transcriptional.
For ACCGGAUGAGCUUUCCGGUCUGAUGAGUCUGUGAGGACGAAACAG [U9A C30U], the self-cleavage is 1.07.

For the variant ACCGGAUGAGCUUUCCGGUCUGAUGAGUCGGUGAGGACGAAACAG [U9A C30G], the self-cleavage was 0.774.

Regarding ACCGGAUGAGCUUUCCGGUCAGAUGAGUCCGUGAGGACGAAACAG [U9A U21A], the self-cleavage is 0.528.

With ACCGGAUGAGCUUUCCGGUCCGAUGAGUCCGUGAGGACGAAACAG [U9A U21C], the self-cleavage came to 0.649.

On to ACCGGAUGAGCUUUCCGGUCGGAUGAGUCCGUGAGGACGAAACAG [U9A U21G], for which the self-cleavage was found to be 0.58.

In the case of ACCGGAUGAGCUUUCCGUUCUGAUGAGUCCGUGAGGACGAAACAG [U9A G18U], the self-cleavage worked out at 0.546.

For ACCGGAUGAGCUUUCCGAUCUGAUGAGUCCGUGAGGACGAAACAG [U9A G18A], the self-cleavage turned out to be 0.497.

As for ACCGGAUGAGCUUUCCGCUCUGAUGAGUCCGUGAGGACGAAACAG [U9A G18C], the self-cleavage is 0.39.

Turning to ACCGGAUGAGCUUUCCGGUCUGAUGAGCCCGUGAGGACGAAACAG [U9A U28C], the self-cleavage worked out at 0.98.

In the case of ACCGGAUGAGCUUUCCGGUCUGAUGAGGCCGUGAGGACGAAACAG [U9A U28G], the self-cleavage came to 0.823.

For the variant ACCGGAUGAGCUUUCCGGUCUGAUGAGACCGUGAGGACGAAACAG [U9A U28A], the self-cleavage came out at 0.803.

ACCGGAUGAGCGUUCCGGUCUGAUGAGUCCGUGAGGACGAAACAG [U9A U12G]: the self-cleavage was 0.802.

For the variant ACCGGAUGAGCAUUCCGGUCUGAUGAGUCCGUGAGGACGAAACAG [U9A U12A], the self-cleavage amounted to 1.23.

Turning to ACCGGAUGAGCCUUCCGGUCUGAUGAGUCCGUGAGGACGAAACAG [U9A U12C], the self-cleavage stood at 0.947.

Turning to ACCGGAUGAGAUUUCCGGUCUGAUGAGUCCGUGAGGACGAAACAG [U9A C11A], the self-cleavage was determined as 1.19.

Take ACCGGAUGAGUUUUCCGGUCUGAUGAGUCCGUGAGGACGAAACAG [U9A C11U]: the self-cleavage was 0.572.

For ACCGGAUGAGGUUUCCGGUCUGAUGAGUCCGUGAGGACGAAACAG [U9A C11G], the self-cleavage was found to be 1.57.

As to ACCGGAUGCGCUUUCCGGUCUGAUGAGUCCGUGAGGACGAACCAG [U9C A42C], the self-cleavage is 0.351.

With ACCGGAUGCGCUUUCCGGUCUGAUGAGUCCGUGAGGACGAAGCAG [U9C A42G], the self-cleavage stood at 0.332.

In the case of ACCGGAUGCGCUUUCCGGUCUGAUGAGUCCGUGAGGACGAAUCAG [U9C A42U], the self-cleavage came to 0.345.

Regarding ACCGGAUGCGCUUUCCGGUCUGAUGAGUCCGUGAGGACGGAACAG [U9C A40G], the self-cleavage turned out to be 0.374.

ACCGGAUGCGCUUUCCGGUCUGAUGAGUCCGUGAGGACGCAACAG [U9C A40C]: the self-cleavage is 0.633.

In the case of ACCGGAUGCGCUUUCCGGUCUGAUGAGUCCGUGAGGACGUAACAG [U9C A40U], the self-cleavage was determined as 0.406.

On to ACCGGAUGAGCUUUCCGGUCUGAUGAGUCCGUGAGGAUGAAACAG [U9A C38U], for which the self-cleavage amounted to 1.23.

Turning to ACCGGAUGAGCUUUCCGGUCUGAUGAGUCCGUGAGGAAGAAACAG [U9A C38A], the self-cleavage was determined as 0.755.

For the variant ACCGGAUGAGCUUUCCGGUCUGAUGAGUCCGUGAGGAGGAAACAG [U9A C38G], the self-cleavage worked out at 0.682.

On to ACCGGAUGAGCUUUCCGGUCUGAUGAGUCCGUGAGGACUAAACAG [U9A G39U], for which the self-cleavage came to 0.422.

For ACCGGAUGAGCUUUCCGGUCUGAUGAGUCCGUGAGGACAAAACAG [U9A G39A], the self-cleavage stood at 0.307.

Consider ACCGGAUGAGCUUUCCGGUCUGAUGAGUCCGUGAGGACCAAACAG [U9A G39C], for which the self-cleavage was determined as 0.288.

On to ACCGGAUGAGCUUUCCGGUCUUAUGAGUCCGUGAGGACGAAACAG [U9A G22U], for which the self-cleavage is 0.311.

ACCGGAUGAGCUUUCCGGUCUCAUGAGUCCGUGAGGACGAAACAG [U9A G22C]: the self-cleavage was 0.359.

ACCGGAUGAGCUUUCCGGUCUAAUGAGUCCGUGAGGACGAAACAG [U9A G22A]: the self-cleavage was determined as 0.282.

For ACCGGAUGCGAUUUCCGGUCUGAUGAGUCCGUGAGGACGAAACAG [U9C C11A], the self-cleavage worked out at 1.6.

As for ACCGGAUGCGGUUUCCGGUCUGAUGAGUCCGUGAGGACGAAACAG [U9C C11G], the self-cleavage worked out at 0.944.

As for ACCGGAUGCGUUUUCCGGUCUGAUGAGUCCGUGAGGACGAAACAG [U9C C11U], the self-cleavage is 0.889.

For the variant ACCGGAUGAGCUAUCCGGUCUGAUGAGUCCGUGAGGACGAAACAG [U9A U13A], the self-cleavage stood at 1.62.

As for ACCGGAUGAGCUCUCCGGUCUGAUGAGUCCGUGAGGACGAAACAG [U9A U13C], the self-cleavage turned out to be 1.37.

For the variant ACCGGAUGAGCUGUCCGGUCUGAUGAGUCCGUGAGGACGAAACAG [U9A U13G], the self-cleavage worked out at 1.1.

With ACCGGAUGCGCUUUCCGGUCUGAUGAGUCCGUGAGGACGAAACAG [U9C], the self-cleavage was determined as 1.02.

In the case of ACCGGAUGAGCUUUCCGGUCUGAAGAGUCCGUGAGGACGAAACAG [U9A U24A], the self-cleavage is 1.2.

Regarding ACCGGAUGAGCUUUCCGGUCUGACGAGUCCGUGAGGACGAAACAG [U9A U24C], the self-cleavage turned out to be 1.38.

Regarding ACCGGAUGAGCUUUCCGGUCUGAGGAGUCCGUGAGGACGAAACAG [U9A U24G], the self-cleavage is 0.919.

As to ACCGGAUGAGCUUUCCGGUCUGAUGAGUCCGUUAGGACGAAACAG [U9A G33U], the self-cleavage amounted to 0.908.

For ACCGGAUGAGCUUUCCGGUCUGAUGAGUCCGUAAGGACGAAACAG [U9A G33A], the self-cleavage came out at 0.92.

With ACCGGAUGAGCUUUCCGGUCUGAUGAGUCCGUCAGGACGAAACAG [U9A G33C], the self-cleavage came out at 0.808.

As for ACCGGAUGCGCUUUCCGGUCUGAUGAGUCCGUGUGGACGAAACAG [U9C A34U], the self-cleavage was 0.65.

Regarding ACCGGAUGCGCUUUCCGGUCUGAUGAGUCCGUGGGGACGAAACAG [U9C A34G], the self-cleavage stood at 0.946.

In the case of ACCGGAUGCGCUUUCCGGUCUGAUGAGUCCGUGCGGACGAAACAG [U9C A34C], the self-cleavage amounted to 0.94.

For ACCGGAUGAGCUUGCCGGUCUGAUGAGUCCGUGAGGACGAAACAG [U9A U14G], the self-cleavage came out at 1.

On to ACCGGAUGAGCUUACCGGUCUGAUGAGUCCGUGAGGACGAAACAG [U9A U14A], for which the self-cleavage was 1.07.

With ACCGGAUGAGCUUCCCGGUCUGAUGAGUCCGUGAGGACGAAACAG [U9A U14C], the self-cleavage came out at 0.73.

On to ACCGGAUGCGCUUUCCGGUCUGGUGAGUCCGUGAGGACGAAACAG [U9C A23G], for which the self-cleavage was found to be 0.361.

Take ACCGGAUGCGCUUUCCGGUCUGUUGAGUCCGUGAGGACGAAACAG [U9C A23U]: the self-cleavage was found to be 0.358.

On to ACCGGAUGCGCUUUCCGGUCUGCUGAGUCCGUGAGGACGAAACAG [U9C A23C], for which the self-cleavage was 0.283.

Turning to ACCGGAUGCGCUUUCCGGUCUGAUGAGUCCGUGAGGCCGAAACAG [U9C A37C], the self-cleavage stood at 1.03.

For ACCGGAUGCGCUUUCCGGUCUGAUGAGUCCGUGAGGGCGAAACAG [U9C A37G], the self-cleavage stood at 1.61.

As to ACCGGAUGCGCUUUCCGGUCUGAUGAGUCCGUGAGGUCGAAACAG [U9C A37U], the self-cleavage worked out at 0.666.
